Consider one molecule from paper PMC8411024 (Biomolecules & Therapeutics, 2021).

The assay addresses T1, Human LRP6 E1E2 (21-630) (human, UniProt O75581 21-630).
T1 sequence (looked up): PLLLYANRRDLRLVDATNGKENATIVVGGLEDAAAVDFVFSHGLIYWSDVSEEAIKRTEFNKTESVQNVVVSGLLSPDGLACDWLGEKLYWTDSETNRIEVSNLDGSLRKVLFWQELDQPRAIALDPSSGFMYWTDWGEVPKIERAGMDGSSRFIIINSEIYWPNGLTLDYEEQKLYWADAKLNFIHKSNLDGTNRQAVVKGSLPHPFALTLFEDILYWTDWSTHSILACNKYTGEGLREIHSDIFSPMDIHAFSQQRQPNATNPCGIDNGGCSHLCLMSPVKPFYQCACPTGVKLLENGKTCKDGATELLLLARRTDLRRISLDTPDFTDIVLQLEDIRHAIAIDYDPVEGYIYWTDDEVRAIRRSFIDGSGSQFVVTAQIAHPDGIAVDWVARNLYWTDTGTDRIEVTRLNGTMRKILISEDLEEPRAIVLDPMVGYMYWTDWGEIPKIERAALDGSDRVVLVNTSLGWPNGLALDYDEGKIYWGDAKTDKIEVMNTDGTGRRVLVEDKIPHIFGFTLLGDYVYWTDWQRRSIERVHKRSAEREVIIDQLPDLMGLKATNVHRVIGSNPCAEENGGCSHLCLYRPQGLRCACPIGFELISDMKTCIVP
The assay is described as follows: HDX-MS.

B1: SOSTΔ (24-169) (domain or fragment, human, UniProt Q9BQB4 24-169, looked up)
chain: QGWQAFKNDATEIIPELGEYPEPPPELENNKTMNRAENGGRPPHHPFETKDVSEYSCRELHFTRYVTDGPCRSAKPVTELVCSGQCGPARLLPNAIGRGKWWRPSGPDFRCIPDRYRAQRVQLLCPGGEAPRARKVRLVASCKCKR
For the molecule B1, the binding result is listed as “binds”.
